We go through one variant from IntAct's records for PubMed 26437117.

Sequences and labels used below:
B1: Synaptotagmin-1 (Rattus norvegicus (Rat)), P21707 (parent)
chain: MVSASHPEALAAPVTTVATLVPHNATEPASPGEGKEDAFSKLKQKFMNELHKIPLPPWALIAIAIVAVLLVVTCCFCVCKKCLFKKKNKKKGKEKGGKNAINMKDVKDLGKTMKDQALKDDDAETGLTDGEEKEEPKEEEKLGKLQYSLDYDFQNNQLLVGIIQAAELPALDMGGTSDPYVKVFLLPDKKKKFETKVHRKTLNPVFNEQFTFKVPYSELGGKTLVMAVYDFDRFSKHDIIGEFKVPMNTVDFGHVTEEWRDLQSAEKEEQEKLGDICFSLRYVPTAGKLTVVILEAKNLKKMDVGGLSDPYVKIHLMQNGKRLKKKKTTIKKNTLNPYYNESFSFEVPFEQIQKVQVVVTVLDYDKIGKNDAIGKVFVGYNSTGAELRHWSDMLANPRRPIAQWHTLQVEEEVDAMLAVKK

Variants of B1 are the subject of this assay. The settings on record: with stx1a_mouse Stx1a.
With D178A;D230A;D232A;D309A;D363A;D365A, the “effect of a mutation on the interaction” value is on record as “decreasing interaction strength”.
